Reference: patent publication US20240269235A1 (Gilead, published 2024)

T1: trimeric murine IL-2 receptor (IL-2Rα, IL-2Rβ, and IL-2Rγ) on CTLL-2 cells (murine, UniProt P01590 22-268; P16297 27-539; P34902 23-369)
T1 sequence (looked up) 1: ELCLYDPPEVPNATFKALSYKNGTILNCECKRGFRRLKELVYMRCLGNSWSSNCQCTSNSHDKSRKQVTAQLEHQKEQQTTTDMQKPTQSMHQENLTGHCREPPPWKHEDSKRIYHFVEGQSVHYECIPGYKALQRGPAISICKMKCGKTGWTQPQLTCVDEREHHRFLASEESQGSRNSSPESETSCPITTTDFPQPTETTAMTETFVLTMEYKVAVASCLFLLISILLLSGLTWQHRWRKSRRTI
T1 sequence (looked up) 2: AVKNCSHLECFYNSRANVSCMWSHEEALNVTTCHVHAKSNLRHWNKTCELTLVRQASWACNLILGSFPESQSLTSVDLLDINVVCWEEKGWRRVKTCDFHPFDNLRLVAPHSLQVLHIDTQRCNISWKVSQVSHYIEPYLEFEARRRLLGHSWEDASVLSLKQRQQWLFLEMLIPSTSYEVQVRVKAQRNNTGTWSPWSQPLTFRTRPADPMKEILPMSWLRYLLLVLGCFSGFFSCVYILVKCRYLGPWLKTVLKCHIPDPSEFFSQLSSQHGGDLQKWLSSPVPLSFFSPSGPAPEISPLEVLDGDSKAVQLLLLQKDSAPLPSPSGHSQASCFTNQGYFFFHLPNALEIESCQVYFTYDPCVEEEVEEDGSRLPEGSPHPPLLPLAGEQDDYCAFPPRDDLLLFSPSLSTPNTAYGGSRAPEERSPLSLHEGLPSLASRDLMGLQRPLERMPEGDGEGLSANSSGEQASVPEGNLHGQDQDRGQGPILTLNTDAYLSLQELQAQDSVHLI
T1 sequence (looked up) 3: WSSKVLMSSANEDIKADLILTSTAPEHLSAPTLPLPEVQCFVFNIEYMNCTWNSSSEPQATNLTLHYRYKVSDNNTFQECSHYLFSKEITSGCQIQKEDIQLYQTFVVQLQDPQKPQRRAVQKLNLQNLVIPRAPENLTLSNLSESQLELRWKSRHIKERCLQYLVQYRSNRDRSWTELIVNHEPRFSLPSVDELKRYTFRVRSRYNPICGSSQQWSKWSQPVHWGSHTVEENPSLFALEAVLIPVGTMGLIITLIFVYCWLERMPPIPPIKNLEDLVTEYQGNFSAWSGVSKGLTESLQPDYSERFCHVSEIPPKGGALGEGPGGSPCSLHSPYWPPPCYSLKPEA


What was measured:
[1] = molecular target: T2, IL-2Rβγ heterodimer, custom biotinylated Fc fusion protein (human IL-2Rβ 27-240-Fc-FLAG / human IL-2Rγ … (human, site-specific biotinylation at the AviTag)); experiment: SPR (Biacore), CM4 chip, biotinylated receptor on neutravidin
T2 construct: Extracellular regions fused to IgG1 knob-in-hole Fc subunits with tags; also called IL-2 receptor βγ heterodimer; Fc-IL-2Rβγ
T2 sequence (chain, as listed by the source limits assumed): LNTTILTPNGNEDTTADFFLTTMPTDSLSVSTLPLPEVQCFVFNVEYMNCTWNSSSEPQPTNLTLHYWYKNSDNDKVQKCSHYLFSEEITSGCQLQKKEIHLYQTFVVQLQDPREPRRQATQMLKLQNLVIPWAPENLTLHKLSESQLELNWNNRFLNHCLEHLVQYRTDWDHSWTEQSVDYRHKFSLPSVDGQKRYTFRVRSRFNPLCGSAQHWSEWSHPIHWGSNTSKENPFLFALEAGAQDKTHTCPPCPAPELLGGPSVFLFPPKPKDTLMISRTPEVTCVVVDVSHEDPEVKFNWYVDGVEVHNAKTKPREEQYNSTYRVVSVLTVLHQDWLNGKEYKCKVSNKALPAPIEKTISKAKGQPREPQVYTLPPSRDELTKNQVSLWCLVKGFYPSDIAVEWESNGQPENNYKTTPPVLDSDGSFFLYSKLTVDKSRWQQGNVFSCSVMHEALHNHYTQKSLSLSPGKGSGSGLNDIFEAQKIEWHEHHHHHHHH
Experimental: Fc-IL-2 variant binding data was collected on a Biacore platform using a CM4 chip. Neutravidin was immobilized using standard amine coupling methods and used to capture biotinylated receptors. The source, preparation and immobilization of biotinylated IL-2Rα and IL-2Rβγ heterodimer was as described in Example 4. Proleukin was used as a comparator. Fc-IL-2 variants and Proleukin were injected at various concentrations over these surfaces. Kinetic data obtained from these injections was used to extract kₒₙ and koff to calculate KD (KD=Koff/kₒₙ).

[2] = molecular target: T1, trimeric murine IL-2 receptor (IL-2Rα, …); experiment: cell-based or functional assay

Row | Binder | Kd [1] [pM] | STAT5 activation of CTLL-2 cells, EC50 [2] [pM]
1 | Fc-IL-2v heterodimer 97.46 (hIL-2v_Δ1-5_Y45G_E62A_C125S) (Fc fusion, hIgG4 knob-in-hole Fc heterodimer, one IL-2v on the knob chain) chain 1: ESKYGPPCPPCPAPEAAGGPSVFLFPPKPKDTLMISRTPEVTCVVVDVSQEDPEVQFNWYVDGVEVHNAKTKPREEQFNSTYRVVSVLTVLHQDWLNGKEYKCKVSNKGLPSSIEKTISKAKGQPREPQVYTLPPSQEEMTKNQVSLWCLVKGFYPSDIAVEWESNGQPENNYKTTPPVLDSDGSFFLYSRLTVDKSRWQEGNVFSCSVMHEALHNHYTQKSLSLSLGGGGGSGGGGSGGGGSGGGGSSTKKTQLQLEHLLLDLQMILNGINNYKNPKLTRMLTFKFGMPKKATELKHLQCLEEALKPLEEVLNLAQSKNFHLRPRDLISNINVIVLELKGSETTFMCEYADETATIVEFLNRWITFSQSIISTLT chain 2: ESKYGPPCPPCPAPEAAGGPSVFLFPPKPKDTLMISRTPEVTCVVVDVSQEDPEVQFNWYVDGVEVHNAKTKPREEQFNSTYRVVSVLTVLHQDWLNGKEYKCKVSNKGLPSSIEKTISKAKGQPREPQVYTLPPSQEEMTKNQVSLSCAVKGFYPSDIAVEWESNGQPENNYKTTPPVLDSDGSFFLVSRLTVDKSRWQEGNVFSCSVMHEALHNRFTQKSLSLSLGK | 65 | 3400
2 | Fc-IL-2v heterodimer 102.46 (hIL-2v_Δ1-5_Y45G_E61A_E62A_C125S) (Fc fusion, hIgG4 knob-in-hole Fc heterodimer, one IL-2v on the knob chain) chain 1: ESKYGPPCPPCPAPEAAGGPSVFLFPPKPKDTLMISRTPEVTCVVVDVSQEDPEVQFNWYVDGVEVHNAKTKPREEQFNSTYRVVSVLTVLHQDWLNGKEYKCKVSNKGLPSSIEKTISKAKGQPREPQVYTLPPSQEEMTKNQVSLWCLVKGFYPSDIAVEWESNGQPENNYKTTPPVLDSDGSFFLYSRLTVDKSRWQEGNVFSCSVMHEALHNHYTQKSLSLSLGGGGGSGGGGSGGGGSGGGGSSTKKTQLQLEHLLLDLQMILNGINNYKNPKLTRMLTFKFGMPKKATELKHLQCLEAALKPLEEVLNLAQSKNFHLRPRDLISNINVIVLELKGSETTFMCEYADETATIVEFLNRWITFSQSIISTLT chain 2: ESKYGPPCPPCPAPEAAGGPSVFLFPPKPKDTLMISRTPEVTCVVVDVSQEDPEVQFNWYVDGVEVHNAKTKPREEQFNSTYRVVSVLTVLHQDWLNGKEYKCKVSNKGLPSSIEKTISKAKGQPREPQVYTLPPSQEEMTKNQVSLSCAVKGFYPSDIAVEWESNGQPENNYKTTPPVLDSDGSFFLVSRLTVDKSRWQEGNVFSCSVMHEALHNRFTQKSLSLSLGK | 73 | 6100
3 | Fc-IL-2v heterodimer 103.46 (hIL-2v_Δ1-5_E61A_E62A_C125S) (Fc fusion, hIgG4 knob-in-hole Fc heterodimer, one IL-2v on the knob chain) chain 1: ESKYGPPCPPCPAPEAAGGPSVFLFPPKPKDTLMISRTPEVTCVVVDVSQEDPEVQFNWYVDGVEVHNAKTKPREEQFNSTYRVVSVLTVLHQDWLNGKEYKCKVSNKGLPSSIEKTISKAKGQPREPQVYTLPPSQEEMTKNQVSLWCLVKGFYPSDIAVEWESNGQPENNYKTTPPVLDSDGSFFLYSRLTVDKSRWQEGNVFSCSVMHEALHNHYTQKSLSLSLGGGGGSGGGGSGGGGSGGGGSSTKKTQLQLEHLLLDLQMILNGINNYKNPKLTRMLTFKFYMPKKATELKHLQCLEAALKPLEEVLNLAQSKNFHLRPRDLISNINVIVLELKGSETTFMCEYADETATIVEFLNRWITFSQSIISTLT chain 2: ESKYGPPCPPCPAPEAAGGPSVFLFPPKPKDTLMISRTPEVTCVVVDVSQEDPEVQFNWYVDGVEVHNAKTKPREEQFNSTYRVVSVLTVLHQDWLNGKEYKCKVSNKGLPSSIEKTISKAKGQPREPQVYTLPPSQEEMTKNQVSLSCAVKGFYPSDIAVEWESNGQPENNYKTTPPVLDSDGSFFLVSRLTVDKSRWQEGNVFSCSVMHEALHNRFTQKSLSLSLGK | 96 | 2700

More lines, in order of falling Kd [1], values ahead:

Row | Kd [1] [pM] | STAT5 activation of CTLL-2 cells, EC50 [2] [pM] | Binder
4 | 61 | 1400 | Fc-IL-2v heterodimer 104.46 (hIL-2v_Δ1-5_R38G_F42A_C125S) (Fc fusion, hIgG4 knob-in-hole Fc heterodimer, one IL-2v on the knob chain) chain 1: ESKYGPPCPPCPAPEAAGGPSVFLFPPKPKDTLMISRTPEVTCVVVDVSQEDPEVQFNWYVDGVEVHNAKTKPREEQFNSTYRVVSVLTVLHQDWLNGKEYKCKVSNKGLPSSIEKTISKAKGQPREPQVYTLPPSQEEMTKNQVSLWCLVKGFYPSDIAVEWESNGQPENNYKTTPPVLDSDGSFFLYSRLTVDKSRWQEGNVFSCSVMHEALHNHYTQKSLSLSLGGGGGSGGGGSGGGGSGGGGSSTKKTQLQLEHLLLDLQMILNGINNYKNPKLTGMLTAKFYMPKKATELKHLQCLEEELKPLEEVLNLAQSKNFHLRPRDLISNINVIVLELKGSETTFMCEYADETATIVEFLNRWITFSQSIISTLT chain 2: ESKYGPPCPPCPAPEAAGGPSVFLFPPKPKDTLMISRTPEVTCVVVDVSQEDPEVQFNWYVDGVEVHNAKTKPREEQFNSTYRVVSVLTVLHQDWLNGKEYKCKVSNKGLPSSIEKTISKAKGQPREPQVYTLPPSQEEMTKNQVSLSCAVKGFYPSDIAVEWESNGQPENNYKTTPPVLDSDGSFFLVSRLTVDKSRWQEGNVFSCSVMHEALHNRFTQKSLSLSLGK
5 | 61 | 1600 | Fc-IL-2v heterodimer 100.46 (hIL-2v_Δ1-5_F42A_E61A_C125S) (Fc fusion, hIgG4 knob-in-hole Fc heterodimer, one IL-2v on the knob chain) chain 1: ESKYGPPCPPCPAPEAAGGPSVFLFPPKPKDTLMISRTPEVTCVVVDVSQEDPEVQFNWYVDGVEVHNAKTKPREEQFNSTYRVVSVLTVLHQDWLNGKEYKCKVSNKGLPSSIEKTISKAKGQPREPQVYTLPPSQEEMTKNQVSLWCLVKGFYPSDIAVEWESNGQPENNYKTTPPVLDSDGSFFLYSRLTVDKSRWQEGNVFSCSVMHEALHNHYTQKSLSLSLGGGGGSGGGGSGGGGSGGGGSSTKKTQLQLEHLLLDLQMILNGINNYKNPKLTRMLTAKFYMPKKATELKHLQCLEAELKPLEEVLNLAQSKNFHLRPRDLISNINVIVLELKGSETTFMCEYADETATIVEFLNRWITFSQSIISTLT chain 2: ESKYGPPCPPCPAPEAAGGPSVFLFPPKPKDTLMISRTPEVTCVVVDVSQEDPEVQFNWYVDGVEVHNAKTKPREEQFNSTYRVVSVLTVLHQDWLNGKEYKCKVSNKGLPSSIEKTISKAKGQPREPQVYTLPPSQEEMTKNQVSLSCAVKGFYPSDIAVEWESNGQPENNYKTTPPVLDSDGSFFLVSRLTVDKSRWQEGNVFSCSVMHEALHNRFTQKSLSLSLGK
6 | 60 | 19600 | Fc-IL-2v heterodimer 106.46 (hIL-2v_Δ1-5_R38G_F42A_Y45G_C125S) (Fc fusion, hIgG4 knob-in-hole Fc heterodimer, one IL-2v on the knob chain) chain 1: ESKYGPPCPPCPAPEAAGGPSVFLFPPKPKDTLMISRTPEVTCVVVDVSQEDPEVQFNWYVDGVEVHNAKTKPREEQFNSTYRVVSVLTVLHQDWLNGKEYKCKVSNKGLPSSIEKTISKAKGQPREPQVYTLPPSQEEMTKNQVSLWCLVKGFYPSDIAVEWESNGQPENNYKTTPPVLDSDGSFFLYSRLTVDKSRWQEGNVFSCSVMHEALHNHYTQKSLSLSLGGGGGSGGGGSGGGGSGGGGSSTKKTQLQLEHLLLDLQMILNGINNYKNPKLTGMLTAKFGMPKKATELKHLQCLEEELKPLEEVLNLAQSKNFHLRPRDLISNINVIVLELKGSETTFMCEYADETATIVEFLNRWITFSQSIISTLT chain 2: ESKYGPPCPPCPAPEAAGGPSVFLFPPKPKDTLMISRTPEVTCVVVDVSQEDPEVQFNWYVDGVEVHNAKTKPREEQFNSTYRVVSVLTVLHQDWLNGKEYKCKVSNKGLPSSIEKTISKAKGQPREPQVYTLPPSQEEMTKNQVSLSCAVKGFYPSDIAVEWESNGQPENNYKTTPPVLDSDGSFFLVSRLTVDKSRWQEGNVFSCSVMHEALHNRFTQKSLSLSLGK
7 | 54 | 7700 | Fc-IL-2v heterodimer 101.46 (hIL-2v_Δ1-5_F42A_Y45G_C125S) (Fc fusion, hIgG4 knob-in-hole Fc heterodimer, one IL-2v on the knob chain) chain 1: ESKYGPPCPPCPAPEAAGGPSVFLFPPKPKDTLMISRTPEVTCVVVDVSQEDPEVQFNWYVDGVEVHNAKTKPREEQFNSTYRVVSVLTVLHQDWLNGKEYKCKVSNKGLPSSIEKTISKAKGQPREPQVYTLPPSQEEMTKNQVSLWCLVKGFYPSDIAVEWESNGQPENNYKTTPPVLDSDGSFFLYSRLTVDKSRWQEGNVFSCSVMHEALHNHYTQKSLSLSLGGGGGSGGGGSGGGGSGGGGSSTKKTQLQLEHLLLDLQMILNGINNYKNPKLTRMLTAKFGMPKKATELKHLQCLEEELKPLEEVLNLAQSKNFHLRPRDLISNINVIVLELKGSETTFMCEYADETATIVEFLNRWITFSQSIISTLT chain 2: ESKYGPPCPPCPAPEAAGGPSVFLFPPKPKDTLMISRTPEVTCVVVDVSQEDPEVQFNWYVDGVEVHNAKTKPREEQFNSTYRVVSVLTVLHQDWLNGKEYKCKVSNKGLPSSIEKTISKAKGQPREPQVYTLPPSQEEMTKNQVSLSCAVKGFYPSDIAVEWESNGQPENNYKTTPPVLDSDGSFFLVSRLTVDKSRWQEGNVFSCSVMHEALHNRFTQKSLSLSLGK
